According to the supplement of paper PMC7125110:
± gives the standard error. Variants at the floor of the assay were thinned out.

B1: glmS ribozyme (parent)
chain: AUAAAAGCGCCAGAACUACAGAAAUGUAGUUGACGAGGAGGAGGUUUAUCGAAUUUUCGGCGGAUGCCUCCAAA

Key:
Settings in all cases: with glucosamine-6-phosphate
glucosamine-6-phosphate [1] = variants of: B1; experiment: self-cleavage kobs at 160 uM GlcN6P; higher = faster cleavage; RNA array
Procedure, shortened: (§1)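 kobs was derived by fitting per-tile medians to one- or two-exponential decays after normalising signals to baseline and to non-cleaving reference variants. Those signals came from barcoded ribozyme variants transcribed in situ by E. coli RNA polymerase on sequenced MiSeq chips, followed through a hybridised Cy3 probe at 37 °C and imaged over ~14 h. Glucosamine-6-phosphate (40 μM to 10 mM) in HEPES/KCl/Mg(OAc)2 buffer was flowed in. Weighted Michaelis–Menten fits across concentrations then gave kcat and KM.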

glucosamine-6-phosphate [2] = variants of: B1; experiment: self-cleavage kobs at 640 uM GlcN6P; higher = faster cleavage; RNA array
Procedure, shortened: as §1

glucosamine-6-phosphate [3] = variants of: B1; experiment: self-cleavage kobs at 10000 uM GlcN6P; higher = faster cleavage; RNA array
Procedure, shortened: as §1

glucosamine-6-phosphate [4] = variants of: B1; experiment: self-cleavage kobs at 2500 uM GlcN6P; higher = faster cleavage; RNA array
Procedure, shortened: as §1

Variant | self-cleavage kobs at 160 uM GlcN6P (glucosamine-6-phosphate [1]) | self-cleavage kobs at 640 uM GlcN6P (glucosamine-6-phosphate [2]) | self-cleavage kobs at 10000 uM GlcN6P (glucosamine-6-phosphate [3]) | self-cleavage kobs at 2500 uM GlcN6P (glucosamine-6-phosphate [4])
U57A G62C | < 1e-05 s⁻¹ | < 1e-05 s⁻¹ | < 1e-05 s⁻¹ | 
G7C C61U | < 1e-05 s⁻¹ | < 1e-05 s⁻¹ |  | < 1e-05 s⁻¹
G9U C10U C67G | < 1e-05 s⁻¹ | < 1e-05 s⁻¹ |  | < 1e-05 s⁻¹
A36U C50U | < 1e-05 s⁻¹ |  |  | < 1e-05 s⁻¹
G9C C11A C16U G35C U54C G62A | < 1e-05 s⁻¹ | < 1e-05 s⁻¹ |  | 
U30G A33U | < 1e-05 s⁻¹ |  |  | 
A33U C34A C58U | < 1e-05 s⁻¹ |  |  | < 1e-05 s⁻¹
A33G A53U | < 1e-05 s⁻¹ |  | < 1e-05 s⁻¹ | < 1e-05 s⁻¹
C10G C11U G13C A36C G43C | < 1e-05 s⁻¹ | < 1e-05 s⁻¹ |  | < 1e-05 s⁻¹
A12G A36C G66C C68G | < 1e-05 s⁻¹ |  |  | 
C10G G35U | < 1e-05 s⁻¹ | < 1e-05 s⁻¹ |  | < 1e-05 s⁻¹
A36G G38U C61U G66U | < 1e-05 s⁻¹ |  |  | 
C16A A39U C58A U65A | < 1e-05 s⁻¹ | < 1e-05 s⁻¹ |  | < 1e-05 s⁻¹
G43A G60U | < 1e-05 s⁻¹ | < 1e-05 s⁻¹ | < 1e-05 s⁻¹ | 
C10U A12U G40U A48G G60A | 7.46e-05 ± 2.7e-05 s⁻¹ |  |  | 
U46G A64U | < 1e-05 s⁻¹ |  |  | 
A12C G59U | < 1e-05 s⁻¹ |  | < 1e-05 s⁻¹ | < 1e-05 s⁻¹
A12G G32A G35U C68G | < 1e-05 s⁻¹ |  |  | 
U30G G40U A42C C58A | < 1e-05 s⁻¹ | < 1e-05 s⁻¹ |  | < 1e-05 s⁻¹
G13A A33G G63C | < 1e-05 s⁻¹ |  |  | < 1e-05 s⁻¹
G37A A48G A52G G62A | < 1e-05 s⁻¹ |  |  | 
G43U U49A A52U | < 1e-05 s⁻¹ | < 1e-05 s⁻¹ |  | < 1e-05 s⁻¹
A36U U54G | < 1e-05 s⁻¹ |  |  | 
A14G U55A A64C C70U | 3.8e-05 ± 1.7e-05 s⁻¹ | 0.000343 ± 8.3e-05 s⁻¹ | 0.000686 ± 0.00019 s⁻¹ | 0.000958 ± 0.00021 s⁻¹
A36G C61G | < 1e-05 s⁻¹ | < 1e-05 s⁻¹ | < 1e-05 s⁻¹ | 
A12U U45G U46G | 0.000419 ± 0.00015 s⁻¹ |  |  | 0.00499 ± 0.0017 s⁻¹
G13A C34U | < 1e-05 s⁻¹ | < 1e-05 s⁻¹ |  | < 1e-05 s⁻¹
A6G G13U G29C C50G | 0.000248 ± 5.8e-05 s⁻¹ | 0.00012 ± 4.1e-05 s⁻¹ |  | 0.000163 ± 4.4e-05 s⁻¹

Variant | self-cleavage kobs at 160 uM GlcN6P (glucosamine-6-phosphate [1]) | self-cleavage kobs at 640 uM GlcN6P (glucosamine-6-phosphate [2]) | self-cleavage kobs at 10000 uM GlcN6P (glucosamine-6-phosphate [3]) | self-cleavage kobs at 2500 uM GlcN6P (glucosamine-6-phosphate [4])
C8U A39C G44A U56G U65A | < 1e-05 s⁻¹ |  |  | 
C16G A39G A48G C58G A64U | < 1e-05 s⁻¹ | < 1e-05 s⁻¹ |  | 
A42C A64G C68U | < 1e-05 s⁻¹ | < 1e-05 s⁻¹ |  | < 1e-05 s⁻¹
G7U G37C G40A | < 1e-05 s⁻¹ | < 1e-05 s⁻¹ |  | 
C11U A14G C70U | 0.00076 ± 0.00021 s⁻¹ | 0.000656 ± 0.00014 s⁻¹ |  | 0.00193 ± 0.0006 s⁻¹
C10A C16G | < 1e-05 s⁻¹ |  | < 1e-05 s⁻¹ | 
U31A U46G G66A | 6.92e-05 ± 2.9e-05 s⁻¹ | 0.000303 ± 0.00015 s⁻¹ |  | 0.000638 ± 0.00022 s⁻¹
C16G A48C G62U | < 1e-05 s⁻¹ | < 1e-05 s⁻¹ |  | 
A52G C67U C71G | 4.58e-05 ± 2.3e-05 s⁻¹ | 7.65e-05 ± 1.9e-05 s⁻¹ |  | 0.000162 ± 5.9e-05 s⁻¹
C8G G9U A12U C16G | < 1e-05 s⁻¹ | < 1e-05 s⁻¹ |  | 
A15C C16G C50G A64C | 0.000208 ± 6.7e-05 s⁻¹ | 7.03e-05 ± 2.7e-05 s⁻¹ |  | 5.92e-05 ± 1.8e-05 s⁻¹
U30C A36C C50G G59C | 0.000229 ± 9.7e-05 s⁻¹ |  |  | 
C16G A33C C71U | < 1e-05 s⁻¹ | < 1e-05 s⁻¹ |  | < 1e-05 s⁻¹
U30G G35C A36C A52U | < 1e-05 s⁻¹ |  |  | < 1e-05 s⁻¹
G38U C58U G63U | < 1e-05 s⁻¹ |  |  | 
G9A A52G | < 1e-05 s⁻¹ | < 1e-05 s⁻¹ |  | < 1e-05 s⁻¹
U54A U57A U65C | < 1e-05 s⁻¹ |  |  | 
G13U A33G G40U | < 1e-05 s⁻¹ |  |  | 
G7U C19U G38U | < 1e-05 s⁻¹ |  |  | < 1e-05 s⁻¹
U55G U56C | 0.000157 ± 3.8e-05 s⁻¹ | 0.000938 ± 0.00021 s⁻¹ | 0.00614 ± 0.0016 s⁻¹ | 0.00118 ± 0.00028 s⁻¹
G35A A42C | < 1e-05 s⁻¹ | < 1e-05 s⁻¹ | < 1e-05 s⁻¹ | 
C11A C34U G35C | < 1e-05 s⁻¹ |  |  | < 1e-05 s⁻¹
G32U C61U | < 1e-05 s⁻¹ | < 1e-05 s⁻¹ |  | 
C8G G13U G43A U46G C50U | < 1e-05 s⁻¹ | < 1e-05 s⁻¹ |  | 
C16G G37A A48U U49C | < 1e-05 s⁻¹ |  |  | 
A33C G41C G60A | < 1e-05 s⁻¹ | < 1e-05 s⁻¹ |  | < 1e-05 s⁻¹
A36C G44C | < 1e-05 s⁻¹ |  | < 1e-05 s⁻¹ | < 1e-05 s⁻¹
